Data taken from the supplement of paper PMC9170038.

Test system: MS2 coat protein
Assay: apparent KD of MS2 coat protein; designed switch direction (-1 OFF switch, 1 ON switch): -1; higher = weaker reporter binding
How it was run: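 Designed RNA switches were transcribed on Illumina chips by stalled E. coli RNA polymerase and titrated with SNAP-549-labelled MS2 coat protein from 0.7 or 1.5 nM, doubling to 3 µM. Step length ran from 0.8–1.5 h at the lowest concentration to 10–20 min at the highest. The apparent KD is the median over clusters for each design, from curve-fitted normalised cluster fluorescence.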

[1] = input ligand: microRNA oligo, concentration not stated
[2] = Eterna round: R95, input ligand: FMN 200 uM
[3] = Eterna round: R95, input ligand: microRNA oligo, concentration not stated
[4] = Eterna round: R95, input ligand: none

Sequence	apparent KD of MS2 coat protein [3] [nM]	apparent KD of MS2 coat protein (input ligand: FMN 200 uM) [nM]	apparent KD of MS2 coat protein (input ligand: none) [nM]	other results
UAUUUAUAGCAAGGAUAUGAUUAUUAUUAUUUAUCAGAAGGUGCACAUGAGGAUCACCCAUGUUUUAUAAUUUGUAAUUUAAUU [Title] (Eterna round: R96, puzzle: Exclusion NG 1)	–	–	–	apparent KD of MS2 coat protein [1]: 40.9 nM
CUGAGCAGACGGAAAUCCAACAUGAGGAUCACCCAUGUCUCAAAAGCUUUUUGCUCGUCUUAUCUUCCUCUGCUCUC [Cecelein] (puzzle: Sensor v3, turn-off variant 1)	16.8	–	–	apparent KD of MS2 coat protein [2]: 12.9 nM; apparent KD of MS2 coat protein [4]: 11.8 nM
GUUGUGUUAGGAUAUAACAACUACUAAUAAAUUAGUAGUUGUUAGAAGGAACAUGAGGAUCACCCAUGUAUGAC [-21.3, -20.2 kcal, A 36%] (Eterna round: R97, puzzle: Exclusion 4)	–	52.5	30.5	–
UCUAUAGGGCUGCAGGCUUACAUGAGGAUCACCCAUGUAUAGGGUUUUCUACGCGCUCGUCAUCAUACAUUAAUUCG [Eternabot (L1) Solution 31] (Eterna round: R97, puzzle: Sensor, turn-off variant 1)	–	44	53.1	–
GAAUAACAUGAGGAUCACCCAUGUUAGGAUAUGACGUCGUUUAGUCUUUAAACGAGCGUUAGAAGGAACAGGUG [Eternabot (L1) Solution 11] (Eterna round: R97, puzzle: Exclusion 1)	–	70.8	56.8	–
GUUUUACAUGAGGAUCACCCAUGUGAGGAUAUGUUAUUAAUAGCGAUAGUUAUUGGUGGCAGAAGGCGCGUGAU [JR_Exc1_Sub011] (Eterna round: R97, puzzle: Exclusion 1)	–	343	82.6	–
UUUUAACAUGAGGAUCACCCAUGUGAGGAUAUCGAAAUUUAUAUUAAUAUUAUUAAUUCGAGAAGGCACAUUUU [JMF 37] (puzzle: Exclusion 1)	126	–	–	–
GCGCGCGUUGUGAGGAUAUCGGGCCCGAAAGGGCCCGAGAAGGCACAUGAGGAUCACCCAUGUAAGGUGUGUGU [-35.5, -34.8 kcal, A 23%, 0-6bis] (Eterna round: R97, puzzle: Brourd's mod of Exclusion 4)	–	619	613	–
UACCUGAGGCUUUGCUUUAGGUAUACAUGAGGAUCACCCAUGUAGGAUAUGGUAGGCUUUGCUUACCAGAAGGACAUGUUAAUU [JL ENG3 1.09] (Eterna round: R96, puzzle: Exclusion NG 3)	–	141	29	apparent KD of MS2 coat protein [1]: 30.9 nM
UCAUGUAUGUAGGAUAUCGAUGUCGAAAGACAUCGAGAAGGACGUACAUGAGGAUCACCCAUGUAACUUGCAUG [Exclusion 6 - B - 11:a] (puzzle: Exclusion 6)	18.8	–	–	apparent KD of MS2 coat protein [2]: 12.9 nM; apparent KD of MS2 coat protein [4]: 12.9 nM
CUCAUGUGAGGAUAUGUGCUGAUCUGUACUGUGAUUAGAGAACAGAAGGUACAUGAGGAUCACCCAUGUACACG [Eternabot (L2) Solution 46] (Eterna round: R97, puzzle: Exclusion 4)	–	354	14.7	–
AAAUGGGCGUAGGAUAUGAGAUGGUCUAGCAGCUCAGAAGGACGCACAUGAGGAUCACCCAUGUGAUCGGACUA [Celebidi] (puzzle: Exclusion 6)	29.7	–	–	–
GUAUAUGAUGUAGGAUAUACGAGACAUGAGGAUCACCCAUGUGAGGGAAGGAGAAGGAGAAGAGAGUAGAAGGAUAGAGUGUGA [Default title] (Eterna round: R96, puzzle: Exclusion NG 2)	–	69.3	80.6	apparent KD of MS2 coat protein [1]: 45.7 nM
UAUAUGUCAGGAUAUCGAUUGGAACAGAAUUUAACAAUGGUCGAGAAGGGACAUGAGGAUCACCCAUGUUCAAC [JR_Ex4_Sub020] (Eterna round: R97, puzzle: Exclusion 4)	–	27.3	21.9	–
GGCAAUAACGAGGAUAUCGUAUCGGAAACGAUACGAGAAGGUGUAACAUGAGGAUCACCCAUGUUCCUUAAGCC [Fiskers Ex 6 - 9] (puzzle: Exclusion 6)	23.5	–	–	–
UUGUAAUGAUUAGGAUAUUAUUAAUAGAACUUUAUGAUAUACAUGAGGAUCACCCAUGUUACUUAUAAGAAGGAAUCGUAUUAU [JR_ExcNG2_Sub092] (Eterna round: R96, puzzle: Exclusion NG 2)	–	–	–	apparent KD of MS2 coat protein [1]: 15.7 nM
CGUAAAAGGUAGGAUAUGCUAGACGAAAGUCUAGCAGAAGGACCUACAUGAGGAUCACCCAUGUGUCCAAUACG [Mat - Exclusion 6 - Eli Mod - D22] (Eterna round: R97, puzzle: Exclusion 6)	–	50.7	117	–
AUAAUGUGAGGAUAUCACGGCCCGGUAAAUCCGGUAAACGAUGAGAAGGCACAUGAGGAUCACCCAUGUUCCUG [EX4 A.2] (Eterna round: R97, puzzle: Exclusion 4)	–	45.7	16.2	–

Sequence	apparent KD of MS2 coat protein [3] [nM]	apparent KD of MS2 coat protein (input ligand: FMN 200 uM) [nM]	apparent KD of MS2 coat protein (input ligand: none) [nM]	other results
UAUGGUUAAGUCAGGAUAUGCACGCAGAGAACAAAGCAGAAGGGACAUGAGGAUCACCCAUGUAAAGUCGUGUU [Ex4 #77] (Eterna round: R97, puzzle: Brourd's mod of Exclusion 4)	–	31.2	23	–
AAAAAGAUAGGAUAUACAAUAAAAUAAAAUAAAAUAAAUACACAUGAGGAUCACCCAUGUAGAAGGAUCGAAAA [Exclusion 2 #1] (puzzle: Exclusion 2)	25	–	–	apparent KD of MS2 coat protein [2]: 26.6 nM; apparent KD of MS2 coat protein [4]: 31.2 nM
AGCAGUAGUAUCCGAUCCUACAUGAGGAUCACCCAUGUAGCUAGACGUGCACGCGAUGCUCGUCAGACUACCAGAUG [salish99_TOv1_r3_035] (puzzle: Sensor v3, turn-off variant 1)	200	–	–	apparent KD of MS2 coat protein [2]: 119 nM; apparent KD of MS2 coat protein [4]: 195 nM
AACAGUGUAGGAUAUACAGGGCAAACGGCACCCGUCUCCGGACAUGAGGAUCACCCAUGUAGAAGGACACCUAU [EX2 C.16] (Eterna round: R97, puzzle: Exclusion 2)	–	246	47.4	–
UUGUUGUAUGUAGGAUAUGCGUAUUAUUAUUGGGCAGAAGGACAUGAGGAUCACCCAUGUAUGUUGUUGUUAUAUAUUAUAUAU [Title] (Eterna round: R96, puzzle: Exclusion NG 1)	–	66.4	47.8	apparent KD of MS2 coat protein [1]: 35.8 nM
GCGCCAUCGUGAGAUGGCGUAACUACAUGAGGAUCACCCAUGUAGGAUAUCGAUUGCUUUGCAGUCGAGAAGGGCAAGGGAUUU [JL ENG3 3.88] (Eterna round: R96, puzzle: Exclusion NG 3)	–	25.8	20.4	apparent KD of MS2 coat protein [1]: 14.7 nM
UAUUAGCUAGGAUAUACAUGAGGAUCACCCAUGUCACGGGUCAACUUGUCCUAUGCGUGUAGAAGGAGCGACCC [JL Ceriza mod 5] (puzzle: Exclusion 3)	18.8	–	–	–
GGGUAGUGAGGAUAUCGUUGUUAGGAGGAGUAGGUAGGAGGCGAGAAGGCACAUGAGGAUCACCCAUGUAUGGA [JR_Exclu4_Sub067] (puzzle: Exclusion 4)	30.7	–	–	–
UAGGUGUGAGGAUAUGGUAAAGAUAAGAUGAUGAAAGAACUCCAGAAGGCACAUGAGGAUCACCCAUGUAGAAG [Mat - Exclusion 4 - Mod of JL - D30] (puzzle: Exclusion 4)	22.8	–	–	apparent KD of MS2 coat protein [2]: 27.9 nM; apparent KD of MS2 coat protein [4]: 24.7 nM
CAGCCCUGAGGAUAUCCAUCCUUGUACAUGAGGAUCACCCAUGUCUCCCUCUGGGCUUUCGGAGAAGGCAGGUAUC [Megrez-6.2] (Eterna round: R97, puzzle: Exclusion 5)	–	43.2	44.5	–
CCCGGGCCUGUGAGGAUAUGUUUGGGUAAACCCGGGCAGAAGGCACAUGAGGAUCACCCAUGUAAGGGUUUGGG [-29.6, -27.5 kcal, A 23%, 5bbis-5bbis] (Eterna round: R97, puzzle: Brourd's mod of Exclusion 4)	–	22.6	34.5	–
GUCGUGCAGCUUUGCUGUACGAGUACAUGAGGAUCACCCAUGUAGGAUAUGGUACGCUUUGCGUGCUAGAAGGAUAUGUGUAGC [salish99_ExNG3_r04_503] (Eterna round: R96, puzzle: Exclusion NG 3)	–	44.8	37.1	apparent KD of MS2 coat protein [1]: 29 nM
CUAUUCCGAGGAUAUACAUGAGGAUCACCCAUGUCGGGCCUCCGCGUUUCGCGCCUCAGUAGAAGGCGGGUUUC [JL Riri mod 1] (puzzle: Exclusion 3)	18.3	–	–	–
CCGGUAGCAUAGGAUAUCGCCAACGUUGUAGUACGAGAAGGGUGCACAUGAGGAUCACCCAUGUUUCCUGGCCG [Eternabot (L2) Solution 63] (Eterna round: R97, puzzle: Exclusion 6)	–	107	131	–
GCUGGGUCAGGAUAUACAAGAUCGAAAGAUCAAAGAUUCGUACAUGAGGAUCACCCAUGUAGAAGGGACUGGGC [ChP 11-04-2015 #8] (puzzle: Exclusion 2)	17.2	–	–	–
UCGCUCCGUGUAGGAUAUCGCCGUUCUAUUCGGCGAGAAGGACAUGAGGAUCACCCAUGUAUGUUAUUAUCACGCGUGGCGCAC [Design 57] (Eterna round: R96, puzzle: Exclusion NG 1)	–	21.5	19.6	apparent KD of MS2 coat protein [1]: 13.9 nM
CUUUUGUGAGGAUAUCAGUAGUAAUACAAUAGUAUUACUAUUGAGAAGGCACAUGAGGAUCACCCAUGUUCCUC [Ex4 344 Omei mod 6] (puzzle: Exclusion 4)	38	–	–	–
